Paper PMC8508666
Where two headings read alike, the source gives them in different places. Blank lines part the entries; values can stand above or below the molecule they belong to.

Experiments:
[1] = biological target: Sec61α, N-terminally tagged with LgBiT (Oplophorus gracilirostris | not stated); experiment: split reporter (BiFC, NanoBiT); bimolecular luminescence complementation in living HeLa cells, 96-well plate, 24 h after co-transfection of one LgBiT and one SmBiT fusion plasmid (50 ng each); furimazine added, signal 4 min later; RLU normalised to the LgBiT fusion plus Halo-CS set to 1; forskolin (15 µM) lowered the rPKA-cPKA signal; digitonin plus trypsin eliminated the signals
[2] = biological target: Sec61β, C-terminally tagged with LgBiT (not stated | Oplophorus gracilirostris); experiment: as above
[3] = biological target: regulatory subunit of protein kinase A, C-terminally tagged with LgBiT (not stated | Oplophorus gracilirostris); experiment: as above
[4] = biological target: TRAPα, C-terminally tagged with LgBiT (not stated | Oplophorus gracilirostris); experiment: split reporter (BiFC, NanoBiT); synthetic peptide complementation: HeLa cells expressing a LgBiT fusion, furimazine, then 0.002% digitonin, then synthetic peptide (scrambled, actin, SmBiT 1-100 µM; HaBiT up to 100 nM); signal 4 min after the peptide; RLU normalised to the scrambled peptide set to 1
[5] = biological target: Sec61β, C-terminally tagged with LgBiT (not stated | Oplophorus gracilirostris); experiment: as above
[6] = biological target: TRAPβ, C-terminally tagged with LgBiT (not stated | Oplophorus gracilirostris); experiment: as above
[7] = biological target: Sec61α, C-terminally tagged with LgBiT (not stated | Oplophorus gracilirostris); experiment: as above
[8] = biological target: Sec61α, N-terminally tagged with LgBiT (Oplophorus gracilirostris | not stated); experiment: as above
[9] = biological target: regulatory subunit of protein kinase A, C-terminally tagged with LgBiT (not stated | Oplophorus gracilirostris); experiment: as above
[10] = biological target: TRAPα, C-terminally tagged with LgBiT (not stated | Oplophorus gracilirostris); experiment: as above; remark: listed apart in the source
[11] = biological target: Sec61β, C-terminally tagged with LgBiT (not stated | Oplophorus gracilirostris); experiment: as above; remark: listed apart in the source
[12] = biological target: TRAPβ, C-terminally tagged with LgBiT (not stated | Oplophorus gracilirostris); experiment: as above; remark: listed apart in the source
[13] = biological target: Sec61α, C-terminally tagged with LgBiT (not stated | Oplophorus gracilirostris); experiment: as above; remark: listed apart in the source
[14] = biological target: Sec61α, N-terminally tagged with LgBiT (Oplophorus gracilirostris | not stated); experiment: as above; remark: listed apart in the source
[15] = biological target: TRAPα, C-terminally tagged with LgBiT (not stated | Oplophorus gracilirostris); experiment: split reporter (BiFC, NanoBiT); bimolecular luminescence complementation in living HeLa cells, 96-well plate, 24 h after co-transfection of one LgBiT and one SmBiT fusion plasmid (50 ng each); furimazine added, signal 4 min later; RLU normalised to the LgBiT fusion plus Halo-CS set to 1; forskolin (15 µM) lowered the rPKA-cPKA signal; digitonin plus trypsin eliminated the signals

Molecule: Sec61β, N-terminally tagged with SmBiT (from UniProt P60468 1-96) (natural protein)
relative luminescence (RLU, Halo-CS control pair = 1) [1]: 141 RLU

Molecule: Sec63, N-terminally tagged with SmBiT (from UniProt Q9UGP8 1-760) (natural protein)
relative luminescence (RLU, Halo-CS control pair = 1) [2]: 202 RLU

Molecule: catalytic subunit of protein kinase A, C-terminally tagged with SmBiT (from UniProt P17612 1-351) (enzyme)
relative luminescence (RLU, Halo-CS control pair = 1) [3]: 613 RLU

Molecule: CVTGYRLFEEIL [synthetic SmBiT peptide (11 + 1 aa)]
luminescence relative to the scrambled peptide [10]: > 10 fold
luminescence relative to the scrambled peptide [11]: > 10 fold
luminescence relative to the scrambled peptide [12]: > 10 fold
luminescence relative to the scrambled peptide [13]: 2 RLU
luminescence relative to the scrambled peptide [14]: > 10 fold

B2: TRAPβ, C-terminally tagged with SmBiT (natural protein)
chain: EEGARLLASKSLLNRYAVEGRDLTLQYNIYNVGSSAALDVELSDDSFPPEDFGIVSGMLNVKWDRIAPASNVSHTVVLRPLKAGYFNFTSATITYLAQEDGPVVIGSTSAPGQGGILAQREFDRRFSPHFLDWAAFGVMTLPSIGIPLLLWYSSKRKYDTPKTKKN
relative luminescence (RLU, Halo-CS control pair = 1) [15]: 91 RLU

More lines, now with the values ahead:

luminescence relative to the scrambled peptide [4]: > 50 fold
luminescence relative to the scrambled peptide [5]: > 50 fold
luminescence relative to the scrambled peptide [6]: > 50 fold
luminescence relative to the scrambled peptide [7]: 15 RLU
luminescence relative to the scrambled peptide [8]: > 50 fold
fold activity over the SmBiT peptide [9]: 10000 fold
Molecule: synthetic HaBiT peptide (high affinity variant of SmBiT)

relative luminescence (RLU, Halo-CS control pair = 1) [1]: 62 RLU
B1: TRAPα, C-terminally tagged with SmBiT (natural protein)
chain: VLFRGGPRGLLAVAQDLTEDEETVEDSIIEDEDDEAEVEEDEPTDLVEDKEEEDVSGEPEASPSADTTILFVKGEDFPANNIVKFLVGFTNKGTEDFIVESLDASFRYPQDYQFYIQNFTALPLNTVVPPQRQATFEYSFIPAEPMGGRPFGLVINLNYKDLNGNVFQDAVFNQTVTVIEREDGLDGETIFMYMFLAGLGLLVIVGLHQLLESRKRKRPIQKVEMGTSSQNDVDMSWIPQETLNQINKASPRRLPRKRAQKRSVGSDE
